This note sets out measurements from article PMC5505246, “Assembly of Francisella novicida Cpf1 endonuclease in complex with guide RNA and target DNA”.

The series concerns the target FnCpf1 (Cas12a) (Francisella novicida U112, UniProt A0Q7Q2 1-1300). Kind of series: native PAGE / preparative native electrophoresis; 5 mM MgCl2; protein:RNA:DNA 1:1.3:1.7; Reconstitution: 81 mM KCl, 38 mM bicine pH 8.0, 5 mM MgCl2; protein + crRNA 30 min at 293 K, then DNA duplex 60 min at 368 K (so in the source); complex in 150 mM KCl, 50 mM bicine pH 8.0, 0.5 mM TCEP. Particulars: protein: recombinant; tags: C-terminal His6; crRNA-guided DNA target.

FnCpf1 (Cas12a), sequence (A0Q7Q2 whole entry): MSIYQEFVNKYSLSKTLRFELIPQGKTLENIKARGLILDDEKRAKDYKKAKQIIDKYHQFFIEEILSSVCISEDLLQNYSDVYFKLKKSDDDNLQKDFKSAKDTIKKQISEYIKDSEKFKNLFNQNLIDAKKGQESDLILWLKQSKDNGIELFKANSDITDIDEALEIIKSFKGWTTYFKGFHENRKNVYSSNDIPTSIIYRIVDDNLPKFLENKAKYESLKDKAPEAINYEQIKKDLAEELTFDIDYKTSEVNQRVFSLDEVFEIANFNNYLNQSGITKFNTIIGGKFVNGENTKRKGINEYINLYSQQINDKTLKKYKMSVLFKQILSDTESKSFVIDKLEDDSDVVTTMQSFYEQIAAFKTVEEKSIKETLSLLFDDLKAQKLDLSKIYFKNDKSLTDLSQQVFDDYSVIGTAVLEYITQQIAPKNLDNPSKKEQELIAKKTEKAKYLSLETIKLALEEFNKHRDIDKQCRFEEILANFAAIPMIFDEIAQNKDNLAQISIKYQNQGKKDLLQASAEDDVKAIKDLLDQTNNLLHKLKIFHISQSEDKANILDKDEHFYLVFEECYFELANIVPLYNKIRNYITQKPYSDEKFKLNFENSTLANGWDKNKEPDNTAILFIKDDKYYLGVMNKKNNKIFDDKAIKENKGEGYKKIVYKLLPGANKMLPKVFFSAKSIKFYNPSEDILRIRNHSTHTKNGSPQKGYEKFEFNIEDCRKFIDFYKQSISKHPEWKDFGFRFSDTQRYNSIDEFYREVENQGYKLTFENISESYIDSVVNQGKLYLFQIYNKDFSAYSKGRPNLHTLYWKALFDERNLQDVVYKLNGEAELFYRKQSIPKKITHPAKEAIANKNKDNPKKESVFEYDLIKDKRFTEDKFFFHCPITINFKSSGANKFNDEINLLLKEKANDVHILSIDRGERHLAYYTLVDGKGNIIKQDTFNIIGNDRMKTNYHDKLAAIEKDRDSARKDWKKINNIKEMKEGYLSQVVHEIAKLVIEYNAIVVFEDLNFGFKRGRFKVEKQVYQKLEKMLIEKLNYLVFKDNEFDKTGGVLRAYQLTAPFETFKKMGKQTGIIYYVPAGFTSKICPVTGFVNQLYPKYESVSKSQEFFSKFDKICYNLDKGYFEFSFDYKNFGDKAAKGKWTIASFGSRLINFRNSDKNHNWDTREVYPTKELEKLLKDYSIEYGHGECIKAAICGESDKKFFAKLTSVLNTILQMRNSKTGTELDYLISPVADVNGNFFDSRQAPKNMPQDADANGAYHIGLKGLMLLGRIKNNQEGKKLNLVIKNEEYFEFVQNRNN

B1: crRNA + 31-nt dsDNA target (target and nontarget strands) (mixed)
RNA: AAUUUCUACUGUUGUAGAUGAGAAGUCAUUUAAUAAGGCCACU
DNA 1: GCAGTGGCCTTATTAAATGACTTCTCTAACG
DNA 2: CGTTAGAGAAGTCATTTAATAAGGCCACTGC
Turning to B1, the binding result was “binds”.
